Assay results reported in patent publication US20240218024A1, “METHODS AND COMPOSITIONS FOR TREATMENT OF VIRAL INFECTION” (TECHNION RESEARCH & DEVELOPMENT FOUNDATION LIMITED, priority 2021, published 2024).

B1: PCP-3×: class I slncRNA with three PCP binding hairpins (SEQ ID NO: 23) (nucleic acid)
chain: GAGAAACGTTTCGACATTATATGGAATGCGAAACACGGAGGATGCGGGAAACATGAAGATCACTCATGTTCGCTTAACCATGGATAGGGATCACCCATGTTGCGGTGGTGCGTCAACCAGAGATTTCATATGGGAAACTCTGGGACACGCTGTATTTATACATGAGGATCACCATGTGTGCTTAAATATGGGTAATTCCAGTTTATATGGAAACGGA
B2: PCP-4×: class I slncRNA with four PCP binding hairpins (SEQ ID NO: 24) (nucleic acid)
chain: GAGAAACGTTTCGACATTATATGGAATGCGAAACACGGAGGATGCGGGAAACATGAAGATCACTCATGTTCGCTTAACCATGGATAGGGATCACCCATGTTGCGGTGGTGCGTCAACCAGAGATTTCATATGGGAAACTCTGGGACACGCTGTATTTATACATGAGGATCACCATGTGTGCTTAAATATGGGTAATTCCAGTTTATATGGAAACGGAATAAGATTAGATATGGTTTAAACGACAATATATGGATTGCGTTTTGGGGCACGCCGTCTGGTTACTGCGATGGGTGGGAGGTAGAGGGATTCTAAGCTTAAGA

Experiment: In vitro slncRNA and slncRNA-protein granule formation (fluorescence microscopy)
Type: physicochemical

| Molecule | formation of fluorescent condensates, slncRNA only (8.5 nM slncRNA, granule forming buffer, 1 hour room temperature) | median mCherry fluorescence of SRNP granules relative to PCP-14×/MCP-15× granules (SRNP granules with tdPCP-mCherry) | granule formation / colocalization with tdPCP-mCherry (slncRNA plus 25 nM tdPCP-mCherry) | Poisson parameter λ best fit of condensate fluorescence intensity distribution (slncRNA-only condensates) |
| --- | --- | --- | --- | --- |
| B1 | no such structures were detected | half as bright | witnessed in the presence of the protein |  |
| B2 |  |  |  | 0 |
